# Measurements from patent US5977442A, “Salicylic acid induced map kinase and its use for enhanced disease resistance in plants” (priority 1997, dated 1999).
# B1: p48 SIP kinase: novel protein kinase isolated from tobacco, activated by salicylic acid; Sequence I.D. No. 2 (protein)
# chain: MDGSGQQTDTMMSDAGAEQPPTAPQPVAGMDNIPATLSHGGRFIQYNIFGNIFEVTAKYKPPILPIGKGAYGIVCSALNSETIENVAIKKIANAFDNKIDAKRTLREIKLLRHMDHENIVAIRDIIPPPQREAFNDVYIAYELMDTDLHQIIRSNQGLSEEHCQYFLYQILRGLKYIHSANVLHRDLKPSNLLLNANCDLKICDFGLARVTSETDFMTEYVVTRWYRPPELLLNSSDYTAAIDVWSVGCIFMELMDRKPLFPGRDHVHQLRLIMELIGTPSEAEMEFLNENAKRYIRQLPLYRRQSFTEKFPHVHPTAIDLVEKMLTFDPRRRITVEGALAHPYLNSLHDISDEPICMTPFSFDFEQHALTEEQMKELIYRESLAFNPEYQHM
# modifications: phosphorylated on tyrosine residue(s); serine/threonine phosphorylation also required for activity; positions not given
# What was measured:
# [1] = biological target: T1, p48 SIP kinase (Nicotiana tabacum, UniProt A0A1S3Z5Y0); experiment: Kinetic properties, substrates, cofactors and pH dependence of p48 SIP kinase (in-solution kinase assay); assay type: biochemical, tobacco; conditions: pH of 5.5 or 10
# T1 construct: endogenous in cells; host or cells: SA-treated tobacco suspension culture cells (purified through the poly-L-lysine agarose step)
# T1 sequence (A0A1S3Z5Y0 whole entry): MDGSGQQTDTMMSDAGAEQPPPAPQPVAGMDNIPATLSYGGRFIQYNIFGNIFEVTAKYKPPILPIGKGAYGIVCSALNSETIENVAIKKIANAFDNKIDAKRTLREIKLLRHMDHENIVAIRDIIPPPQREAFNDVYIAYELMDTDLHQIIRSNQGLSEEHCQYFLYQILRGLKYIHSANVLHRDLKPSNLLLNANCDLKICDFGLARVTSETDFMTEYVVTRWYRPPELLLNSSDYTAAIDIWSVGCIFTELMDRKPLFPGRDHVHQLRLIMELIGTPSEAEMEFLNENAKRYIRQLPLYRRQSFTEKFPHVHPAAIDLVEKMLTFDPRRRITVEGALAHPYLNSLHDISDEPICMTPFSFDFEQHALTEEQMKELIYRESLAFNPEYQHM
# Protocol: FIGS. 10A and 10B show a pair of graphs illustrating the effect of pH (FIG. 10A), Mg^2+ and Mn^2+ (FIG. 10B) on p48 SIP kinase activity. Approximately 0.5 unit of partially purified enzyme was used in each test. Buffers used for measuring the effect of pH were 50 mM 2-[N-morpholino]ethanesulfonic acid (Mes, pH 5.0-8.0, .circle-solid.), 50 mM Tris (pH 6.0-9.5, .tangle-solidup.), and 50 mM 3-[cyclohexylamino]-1-propanesulfonic acid (Caps, pH 9.0-12.0, .box-solid.). For testing the effects of Mg^2+ (.circle-solid.), and Mn^2+ (.tangle-solidup.), buffer B from the last purification step was first exchanged to Mg^2+ -free buffer using a desalting column. Mg^2+ was not added in reactions for testing the effect of Mn^2+.
# FIG. 11 is a graph depicting the protein substrate preference of the p48 SIP kinase. About 0.5 unit of partially purified enzyme was used in each reaction. The assay conditions were as described below in Example 1, except various concentrations of MBP (.circle-solid.), histone (.tangle-solidup.), and casein (.box-solid.) were used.
# Unless specifically indicated, assays were performed at room temperature for 20 minutes in a final volume of 15 μl containing 0.5 mg/mL of MBP, 50 μM of γ-^32 P-ATP (about 3000-6000 cpm/pmole), 25 mM Tris pH 7.5, 5 mM MgCl2, 1 mM EGTA, 1 mM DTT, and enzyme. The reaction was terminated by the addition of equal volume of 150 mM H3 PO4. Twenty μL of the mixture was spotted onto an 8-well phosphocellulose filter strip (Pierce, Ill.). After washing with 150 mM H3 PO4 extensively, the phospho-protein was eluted with 0.4 mL of 1 N NaOH, and the radioactivity was determined by liquid scintillation counting. Total cpm in the reaction mixture was also determined in order to calculate the specific activity of the enzyme preparation. One unit of p48 SIP kinase was defined as the amount of enzyme that will catalyze the transfer of 1 pmole of phosphate from ATP to MBP in 1 minute.
# [2] = test system: MBP; experiment: Basal phosphorylation activity of recombinant SIP kinase produced in E. coli; assay type: biochemical; conditions: recombinant protein from E. coli
# Text: A tobacco clone that encodes an exemplary SIP kinase of the invention is described in detail herein. The nucleotide sequence of a cDNA encoding tobacco SIP kinase is set forth below as Sequence I.D. No. 1. It is believed that Sequence I.D. No. 1 constitutes a full-length SIP kinase-encoding clone as it contains a suitable methionine for initiation of translation.
# Optionally, transgenic plants would be created containing mutations in the region encoding the active site of SIP kinase. This embodiment is preferred over the use of anti-sense constructs due to the very high homology between MAP kinases. For example, a mutated p48 SIP kinase with a Lys to Arg change in the kinase subdomain II has been made, and could be introduced into wild tobacco plants. […] Since the mutant p48 kinase would still serve as the substrate for upstream MAP kinase kinase and physically compete with the wild-type p48 SIP kinase, but would not transduce signal to downstream components, it may be possible to specifically block the pathway without affecting other MAP kinase cascades.
# [3] = test system: MBP; experiment: Kinase activity assay during purification of p48 SIP kinase (MBP substrate); assay type: biochemical
# Protocol: All purification procedures were carried out in a cold room or in a 4° C. chamber. Protein extract from about 200 grams of SA-treated cells was first fractionated by (NH4)2 SO4 precipitation. Saturated ammonium sulfate solution was slowly added to total protein extract to 30% of final concentration. After slowly stirring for 30 minutes, the precipitate was collected by centrifugation at 23,000×gfor 10 minutes. The pellets were then dissolved in a total of 30 mL of buffer A (25 mM Tris, pH 7.5, 1 mM EGTA, 10 mM β-glycerolphosphate, 0.1 mM Na3 VO4, 1 mM DTT, 5% glycerol) plus 1 mM phenylmethylsulfonyl fluoride, 5 μg/mL each of antipain, aprotinin, and leupeptin. […]
# Unless specifically indicated, assays were performed at room temperature for 20 minutes in a final volume of 15 μl containing 0.5 mg/mL of MBP, 50 μM of γ-^32 P-ATP (about 3000-6000 cpm/pmole), 25 mM Tris pH 7.5, 5 mM MgCl2, 1 mM EGTA, 1 mM DTT, and enzyme. […] After washing with 150 mM H3 PO4 extensively, the phospho-protein was eluted with 0.4 mL of 1 N NaOH, and the radioactivity was determined by liquid scintillation counting. Total cpm in the reaction mixture was also determined in order to calculate the specific activity of the enzyme preparation. […]
molecule,measurement,setting,value
B1,retained kinase activity,[1],more than 50%
same,phosphorylation of MBP / basal phosphorylation activity,[2],phosphorylates MBP
same,specific activity,[3]; Superdex 200 HR 10/30 fraction,339600.0 pmol/min/mg
same,specific activity,[3]; final purified enzyme,340000 pmol/min/mg
